Assay results reported in patent US12723255B2, “Herbicide tolerance genes and methods of use thereof” (priority 2014, dated 2026).

What was measured:
[1] = kinetic analysis, non-endpoint assay at 23° C.; type: biochemical; details: standard error in parenthetical; for Vmax Quizalofop / Km: 23° C., purified His-tagged protein; for Km: read-out: Km Quizalofop; for Km 2,4-D / Vmax 2,4-D: NDB = activity not robust enough for kinetic characterization
How it was run: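 Purified C-terminal 6-His-tagged recombinant enzymes expressed in bacteria; quizalofop-P or 2,4-D as substrate. Vmax reported as specific activity (umol herbicide product mg enzyme-1 min-1) and Km as mM herbicide substrate, with standard error.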

[2] = type: physicochemical; details: buffer; for T1/2, temperature where 50% of the protein was unfolded, Buffer: pH 7.5
How it was run: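 Thermal shift assay: purified enzyme in 30 mM Tris pH7.5, 150 mM NaCl, with or without 50 uM Fe2+ and 1.0 mM aKG. Unfolding followed by SYPRO orange fluorescence from 10° C. to 95° C. in 0.5° C. steps; melting temperature (T1/2) taken from the curve.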

[3] = enzyme activity assay at 23° C. with purified enzyme; type: biochemical; details: wild-type set at 100%
Description: The enzyme activity of MON-HT protein variants with haloxyfop, fenoxaprop, fluazifop, and dichlorprop as substrates was determined using the enzyme activity assay conducted at 23° C. with purified enzyme. The activity was recorded as the maximum activity as a percentage of the wild-type enzyme's activity, which was set at 100%.

F1 hybrid maize plants = test: efficacy field trial with segregating F1 hybrid plants; type: in vivo; details: CTP A; for % Injury from V4 2,4-D / % Injury from V8 2,4-D: 2,4-D amine 2× at VE-V2 (plus quizalofop-P 0.5×), V4, V8; for % Injury from V4 Quizalofop / % Injury from V8 Quizalofop: quizalofop-P 2× at VE-V2, V4, V8
How it was run: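 Field plots of segregating F1 hybrids (LH244 transformants crossed with MON89034) received either quizalofop-P 0.16 lb ai/acre + 0.25% NIS at VE-V2, V4 and V8, or 2,4-D amine 2 lb ae/acre (+ quizalofop-P 0.04 lb ai/acre at VE-V2) + NIS at VE-V2, V4, V8. Crop injury visually rated 0–100, 10–14 days after application.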

Row | Molecule | Vmax Quizalofop [1] | Km [1] | Km 2,4-D [1] | Vmax 2,4-D [1] | T1/2, temperature where 50% of the protein was unfolded, Buffer plus Fe2+ and aKG [2] | T1/2, temperature where 50% of the protein was unfolded, Buffer [2] | maximum activity as a percentage of the wild-type enzyme's activity, Dichlorprop [3] | maximum activity as a percentage of the wild-type enzyme's activity, Fluazifop [3] | % Injury from V4 2,4-D (F1 hybrid maize plants) | % Injury from V8 2,4-D (F1 hybrid maize plants) | % Injury from V4 Quizalofop (F1 hybrid maize plants) | % Injury from V8 Quizalofop (F1 hybrid maize plants) | maximum activity as a percentage of the wild-type enzyme's activity, Haloxyfop ([3]; purified enzyme)
1 | MON-HT10: engineered oxygenase protein, amino acid sequence SEQ ID NO:43 (protein) MHAALTPLTNKYRFIDVQPLCGVLGAEITGVDLREPLDDSTWNEILDAFHTYQVIYFPGQAITNEQHIAFSRRFGPVDPVPLLKSIEGYPEVQMIRREANESGRILGDDWHTDSTFLDAPPAAVVMRAIEVPEYGGDTGFLSMYSAWDTLSDTMKATIEGLNVVHSATRVFGSLYQAQNWRFSNTSVKVMDVDAGDRETVHPLVVSHPVTGRRALYCNQVYCQRIEGMTDAESKCLLQFLYEHATKFDFTCRVRWKKDQVLVWDNLCTMHLAVPDYDGKFRYLTRTTVAGDKPSR | 0.78 (−0.05) umol herbicide product mg enzyme-1 min-1 | 130 µM | NDB | NDB | 44 °C | 44 °C | 29% | 48% | 28% | 38.33% | 0% | 0% | 
2 | MON-HT6: engineered oxygenase protein, amino acid sequence SEQ ID NO:31 (protein) MHAALSPLSQKYRFIDVQPLTGVLGAEITGVTLREPLDDNTWNEILDAFHTYQVIYFPGQAITNEQHIAFSRRFGPVDPVPLLKSIEGYPEVQMIRREANESGRVIGDDWHTDSTFLDAPPAAVVMYAREVPPYGGDTGFLSMYSAWDTLSDTMKATIEGLNVVHSATRVFGSLYQAQNRRFSNTSVKVMDVDAGDRETVHPLVVSHPVTGRRALYCNQVYCQRIEGMTDAESKPLLQFLYEHATRFDFTCRVRWKKDQVLVWDNLCTMHRAVPDYAGKFRYLTRTTVAGDKPSR | 0.39 (−0.03) umol herbicide product mg enzyme-1 min-1 | 100 µM | NDB | NDB | 44 °C | 44 °C | 37% | 47% | 27% | 12.7% | 8% | 1.7% | 75%
